The text below walks through data of patent US8236762B2, “Peptide-cytotoxic conjugates” (IPSEN Pharma S.A.S., priority 2006, dated 2012).

pKi: −log10 of the molar value. Like-named read-outs stand apart in the source and are kept apart here. Numbered stars: 1 amine (or outer) side, 2 acyl side, 3 side chain; on linkers, the order of the positions; unused ones are H or OH. Square brackets hold non-standard residues; d marks the D form. Peptide text beside a SMILES is read from it. * marks the point of attachment. Pipz(1-CH2CO,4-CH2CH2NH) = O=C(CN1CCN(CCN[*:1])CC1)[*:2]; X1 = CC[C@@]1(O*)C(=O)OCc2c1cc1n(c2=O)Cc2cc3ccccc3nc2-1; Suc = O=C(CCC(=O)[*:2])[*:1]; Nle = CCCC[C@H](N)C(=O)O; AEEA = NCCOCCOCC(=O)O; GABA = NCCCC(=O)O; βAla = NCCC(=O)O

One series addresses T1, hSSTR-1 (Homo sapiens, UniProt P30872).
T1 construct: expressed in transfected cells; host or cells: CHO-K1
Kind of series: Somatostatin receptor radioligand binding, hSSTR-1 (CHO-K1 membranes). Particulars: read-out: Ki hSSTR1 ± (SEM). The method, then:
Membranes for in vitro receptor binding assays were obtained by homogenizing (Polytron setting 6, 15 sec) CHO-K1 cells expressing human somatostatin receptor subtypes hSSTR-1, hSSTR-2, hSSTR-3, hSSTR-4 or hSSTR-5 in ice-cold 50 mM Tris-HCl. The homogenized cells were centrifuged twice at 39,000 g for 10 minutes with an intermediate resuspension in fresh buffer. The final pellets were resuspended in 10 mM Tris-HCl to prepare the cell membrane homogenate for use in the binding assay.
The final assay volume was 0.3 ml.
The cell membrane homogenate was incubated with the radioligands for 90 minutes at 25° C. The incubations were terminated by rapid filtration through GF/C filters pre-soaked in 0.3% polyethylenimine using a Brandel® filtration manifold (Gaithersberg, Md., U.S.A.). Each tube and filter was washed three times with 5-ml aliquots of ice-cold buffer. Specific binding was defined as the total radioligand bound minus that bound in the presence of 1000 nM SRIF-14 (for hSSTR-1, hSSTR-3, hSSTR-4 or hSSTR-5), or 1000 nM DPhe-c(Cys-Tyr-D-Trp-Lys-Abu-Cys)-Thr-NH2 for hSSTR-2.

A short description of series [1]: Half-life determination in mouse plasma (LC-MS). The class given is in vitro ADME. Particulars: 37° C. The method, then: (§1) Samples containing approximately 50 μg/ml up to and including approximately 500 μg/ml of test compound according to Formula IA or IB or II was added to 450 μl human or mouse plasma, vortexed briefly and incubated at 37° C. At various time intervals, e.g., 0, 0.5, 1, 2, 4, 6, 8, 24, 36 and 48 hours, 50 μl of the compound-plasma mixture was added to 150 μl acetonitrile in a microcentrifuge tube. The mixture was vortexed, centrifuged for 5 minutes at 10K RPM, and 135 μl of supernatant was transferred to an injection vial. The recovered supernatant was analyzed by using a liquid chromatography-mass spectrophotometer system (LC-MS) consisting of a Finnigan Deca XP® mass spectrometer with an ESI probe at the positive ion mode. HPLC separation was carried out on a Luna 3μ C8 (2)® 3×50 mm column with a gradient decreasing from 100% A to 80% B for 10 minutes at a flow rate of 0.25 ml/min. Buffer A was 0.1% acetic acid in water and buffer B was 0.1% acetic acid acetonitrile.

The nature of series [2]: Half-life determination in human plasma (LC-MS). The class given is in vitro ADME. Particulars: 37° C. As to the method:
as §1

In the next series the target is T2, hSSTR-4 (Homo sapiens, UniProt P31391).
T2 construct: expressed in transfected cells; host or cells: CHO-K1
T2 sequence (P31391 whole entry): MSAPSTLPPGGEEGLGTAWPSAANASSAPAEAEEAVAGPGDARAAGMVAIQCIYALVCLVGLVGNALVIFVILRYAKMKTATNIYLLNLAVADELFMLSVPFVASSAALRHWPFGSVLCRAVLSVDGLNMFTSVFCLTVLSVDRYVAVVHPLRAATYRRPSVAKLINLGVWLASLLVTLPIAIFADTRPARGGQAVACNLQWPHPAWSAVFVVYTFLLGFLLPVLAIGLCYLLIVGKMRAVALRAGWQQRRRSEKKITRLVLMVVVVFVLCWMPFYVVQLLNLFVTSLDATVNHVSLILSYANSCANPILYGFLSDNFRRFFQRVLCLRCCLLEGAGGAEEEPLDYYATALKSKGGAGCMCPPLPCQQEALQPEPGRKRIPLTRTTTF
Briefly: Somatostatin receptor radioligand binding, hSSTR-4 (CHO-K1 membranes). Particulars: read-out: Ki hSSTR4 ± (SEM).

[3] abbreviates: [125I-Tyr11]SRIF-14, value of 1000 indicates at least 1000.

T1 sequence (P30872 whole entry): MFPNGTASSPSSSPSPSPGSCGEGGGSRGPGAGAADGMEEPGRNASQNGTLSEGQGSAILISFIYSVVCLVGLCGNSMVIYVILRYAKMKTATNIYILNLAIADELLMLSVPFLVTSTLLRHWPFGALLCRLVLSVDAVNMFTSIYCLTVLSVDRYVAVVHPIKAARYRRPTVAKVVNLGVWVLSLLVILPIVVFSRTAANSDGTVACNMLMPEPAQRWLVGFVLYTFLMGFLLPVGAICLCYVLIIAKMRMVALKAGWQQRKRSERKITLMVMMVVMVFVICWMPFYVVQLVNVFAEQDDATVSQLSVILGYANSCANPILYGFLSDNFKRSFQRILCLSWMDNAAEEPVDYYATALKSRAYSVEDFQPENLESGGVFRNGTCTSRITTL
Description for hSSTR-4: For the hSSTR-1, hSSTR-3, and hSSTR-4 assays, aliquots of the membrane preparations were incubated for 90 minutes at 25° C. with 0.05 nM [^125I-Tyr11]SRIF-14 in 50 mM HEPES (pH 7.4) buffer containing 0.2% BSA and 5 mM MgCl2. The final assay volume was 0.3 ml. For the hSSTR-2 and hSSTR-5 assays, [^125I]-[4-(2-hydroxyethyl)]-1-piperazinylacetyl-D-Phe-c(Cys-Tyr-D-Trp-Lys-Abu-Cys)-Thr-NH2 (0.05 nM) and [^125I]-D-Phe-c(Cys-Tyr-D-Trp-Lys-Val-Cys)-Thr-NH2 were employed as the radioligands, respectively.

Consider `CC[C@@H]1NC(=O)[C@H](CCCCN)NC(=O)[C@@H](Cc2c[nH]c3ccccc23)NC(=O)[C@H](Cc2ccc(O)cc2)NC(=O)[C@@H](NC(=O)[C@@H](Cc2ccccc2)NC(=O)CN2CCN(CCNC(=O)CCOCCOCCOCCOCCOCCOCCOCCOCCOCCOCCOCCOCCNC(=O)CCC(=O)N[C@H](CC(=O)O)C(=O)O[C@]3(CC)C(=O)OCc4c3cc3n(c4=O)Cc4cc5ccccc5nc4-3)CC2)CSSC[C@@H](C(=O)N[C@H](C(N)=O)[C@@H](C)O)NC1=O` [Example 30, Camptothecin-rvDAsp-Suc-Peg11-Aepa-DPhe-c(Cys-Tyr-DTrp-Lys-Abu-Cys)-Thr-NH2], for which the negative logarithm of the Ki (pKi) at hSSTR-1 is at most 6.00.
For `CC[C@@H]1NC(=O)[C@H](CCCCN)NC(=O)[C@@H](Cc2c[nH]c3ccccc23)NC(=O)[C@H](Cc2ccc(O)cc2)NC(=O)[C@@H](NC(=O)[C@@H](Cc2ccccc2)NC(=O)CN2CCN(CCNC(=O)COCCOCCOCCNC(=O)COCCOCCOCCNC(=O)COCCOCCOCCNC(=O)CCC(=O)N[C@H](CC(=O)O)C(=O)O[C@]3(CC)C(=O)OCc4c3cc3n(c4=O)Cc4cc5ccccc5nc4-3)CC2)CSSC[C@@H](C(=O)N[C@H](C(N)=O)[C@@H](C)O)NC1=O` [Example 29, Camptothecin-rvDAsp-Suc-(Peg3)3-Aepa-DPhe-c(Cys-Tyr-DTrp-Lys-Abu-Cys)-Thr-NH2], the figures for the half-life in series [1] and in series [2] were 44.1 h and 9.3 h, respectively. In addition, the negative-log Ki (pKi) at hSSTR-1 was at most 6.00.
Consider `CCCC[C@H](NC(=O)[C@H](CC(C)C)NC(=O)[C@H](Cc1c[nH]cn1)NC(=O)CCNC(=O)[C@@H](NC(=O)[C@H](C)NC(=O)[C@H](Cc1c[nH]c2ccccc12)NC(=O)[C@H](CCC(N)=O)NC(=O)[C@@H](Cc1ccc(O)cc1)NC(=O)[C@@H](C)NC(=O)[C@H](CCCNC(=N)N)NC(=O)COCCOCCNC(=O)COCCOCCNC(=O)COCCOCCNC(=O)COCCOCCNC(=O)CCC(=O)NCC(=O)O[C@]1(CC)C(=O)OCc2c1cc1n(c2=O)Cc2cc3ccccc3nc2-1)C(C)C)C(N)=O` [Example 26, Camptothecin-rvGly-Suc-(Doc)4-Arg-D-Ala-D-Tyr-Gln-Trp-Ala-Val-β-Ala-His-Leu-Nle-NH2] ({X1-Gly-Suc-AEEA-AEEA-AEEA-AEEA}-R[dA][dY]QWAV[βAla]HL[Nle]-NH2), for which the half-life was 1.8 h in series [1] and 1.4 h in series [2].
Regarding “Camptothecin-rvD-Glu-Suc-(Doc)4-Aepa-D-Phe-c(Cys-Tyr-D-Trp-Lys-Abu-Cys)-Thr-NH2 and Camptothecin-rvGlu-Suc-(Doc)4-Aepa-D-Phe-c(Cys-Tyr-D-Trp-Lys-Abu-Cys)-Thr-NH2 [Example 6]”, the negative logarithm of the Ki (pKi) on hSSTR-1 (setting [3]) and at hSSTR-4 (setting [3]) was at most 6.00 throughout.
`CCCC[C@H](NC(=O)[C@H](CC(C)C)NC(=O)[C@H](Cc1c[nH]cn1)NC(=O)CCNC(=O)[C@@H](NC(=O)[C@H](C)NC(=O)[C@H](Cc1c[nH]c2ccccc12)NC(=O)[C@H](CCC(N)=O)NC(=O)[C@@H](Cc1ccc(O)cc1)NC(=O)[C@@H](CO)NC(=O)CCCNC(=O)CN1CCN(CCNC(=O)COCCOCCNC(=O)COCCOCCNC(=O)COCCOCCNC(=O)COCCOCCNC(=O)CCC(=O)NCC(=O)O[C@]2(CC)C(=O)OCc3c2cc2n(c3=O)Cc3cc4ccccc4nc3-2)CC1)C(C)C)C(N)=O` [Example 28, Camptothecin-rvGly-Suc-(Doc)4-Aepa-Gaba-D-Ser-D-Tyr-Gln-Trp-Ala-Val-β-Ala-His-Leu-Nle-NH2] ({X1-Gly-Suc-AEEA-AEEA-AEEA-AEEA}-[Pipz(1-CH2CO,4-CH2CH2NH)][GABA][dS][dY]QWAV[βAla]HL[Nle]-NH2): the half-life in series [1] was 2.9 h; in series [2], 1.9 h.
`CC[C@@H]1NC(=O)[C@H](CCCCN)NC(=O)[C@@H](Cc2c[nH]c3ccccc23)NC(=O)[C@H](Cc2ccc(O)cc2)NC(=O)[C@@H](NC(=O)[C@@H](Cc2ccccc2)NC(=O)CN2CCN(CCNC(=O)COCCOCCNC(=O)COCCOCCNC(=O)COCCOCCNC(=O)COCCOCCNC(=O)CCC(=O)N[C@H](CCC(=O)O)C(=O)O[C@]3(CC)C(=O)OCc4c3cc3n(c4=O)Cc4cc5ccccc5nc4-3)CC2)CSSC[C@@H](C(=O)N[C@H](C(N)=O)[C@@H](C)O)NC1=O` [Example 31, Camptothecin-rvDGlu-Suc-(Doc)4-Aepa-DPhe-c(Cys-Tyr-DTrp-Lys-Abu-Cys)-Thr-NH2]: the negative-log Ki (pKi) on hSSTR-1 is at most 6.00.
Regarding `CC[C@@H]1NC(=O)[C@H](CCCCN)NC(=O)[C@@H](Cc2c[nH]c3ccccc23)NC(=O)[C@H](Cc2ccc(O)cc2)NC(=O)[C@@H](NC(=O)[C@@H](Cc2ccccc2)NC(=O)CN2CCN(CCNC(=O)COCCOCCNC(=O)COCCOCCNC(=O)COCCOCCNC(=O)COCCOCCNC(=O)CCC(=O)N[C@@H](CNC(=O)OCc3ccccc3)C(=O)O[C@]3(CC)C(=O)OCc4c3cc3n(c4=O)Cc4cc5ccccc5nc4-3)CC2)CSSC[C@@H](C(=O)N[C@H](C(N)=O)[C@@H](C)O)NC1=O` [Example 8, Camptothecin-rvDap(Z)-Suc-(Doc)4-Aepa-D-Phe-c(Cys-Tyr-D-Trp-Lys-Abu-Cys)-Thr-NH2], the half-life in series [1] was 2.2 h; in series [2] it was 0.7 h. Further, the negative logarithm of the Ki (pKi) on hSSTR-1 and on hSSTR-4 was at most 6.00 in each case.
With `CC[C@@H]1NC(=O)[C@H](CCCCN)NC(=O)[C@@H](Cc2c[nH]c3ccccc23)NC(=O)[C@H](Cc2ccc(O)cc2)NC(=O)[C@@H](NC(=O)[C@@H](Cc2ccccc2)NC(=O)CN2CCN(CCNC(=O)COCCOCCNC(=O)COCCOCCNC(=O)COCCOCCNC(=O)COCCOCCNC(=O)CCC(=O)N[C@@H](CC)C(=O)O[C@]3(CC)C(=O)OCc4c3cc3n(c4=O)Cc4cc5ccccc5nc4-3)CC2)CSSC[C@@H](C(=O)N[C@H](C(N)=O)[C@@H](C)O)NC1=O` [Example 12, Camptothecin-rvAbu-Suc-(Doc)4-Aepa-D-Phe-c(Cys-Tyr-D-Trp-Lys-Abu-Cys)-Thr-NH2], the figures for the half-life in series [1] and in series [2] were 6 h and 0.7 h, respectively. Besides, the negative logarithm of the Ki (pKi) on hSSTR-1 and at hSSTR-4 was at most 6.00 in each case.
As for `CC[C@@H]1NC(=O)[C@H](CCCCN)NC(=O)[C@@H](Cc2c[nH]c3ccccc23)NC(=O)[C@H](Cc2ccc(O)cc2)NC(=O)[C@@H](NC(=O)[C@@H](Cc2ccccc2)NC(=O)CN2CCN(CCNC(=O)COCCOCCNC(=O)COCCOCCNC(=O)COCCOCCNC(=O)COCCOCCNC(=O)CCC(=O)N[C@H](CNC(=O)OCc3ccccc3)C(=O)O[C@]3(CC)C(=O)OCc4c3cc3n(c4=O)Cc4cc5ccccc5nc4-3)CC2)CSSC[C@@H](C(=O)N[C@H](C(N)=O)[C@@H](C)O)NC1=O` [Example 9, Camptothecin-rvD-Dap(Z)-Suc-(Doc)4-Aepa-D-Phe-c(Cys-Tyr-D-Trp-Lys-Abu-Cys)-Thr-NH2], the values for the half-life in series [1] and in series [2] were 1.7 h and 0.7 h, respectively. Also, the pKi on hSSTR-1 and at hSSTR-4 was at most 6.00 each time.
For the molecule `CCCC[C@H](NC(=O)[C@H](CC(C)C)NC(=O)[C@H](Cc1c[nH]cn1)NC(=O)CCNC(=O)[C@@H](NC(=O)[C@H](C)NC(=O)[C@H](Cc1c[nH]c2ccccc12)NC(=O)[C@H](CCC(N)=O)NC(=O)[C@@H](Cc1ccc(O)cc1)NC(=O)[C@@H](CO)NC(=O)[C@H](CCCCN)NC(=O)COCCOCCNC(=O)COCCOCCNC(=O)COCCOCCNC(=O)COCCOCCNC(=O)CCC(=O)NCC(=O)O[C@]1(CC)C(=O)OCc2c1cc1n(c2=O)Cc2cc3ccccc3nc2-1)C(C)C)C(N)=O` [Example 25, Camptothecin-rvGly-Suc-(Doc)4-Lys-D-Ser-D-Tyr-Gln-Trp-Ala-Val-β-Ala-His-Leu-Nle-NH2] ({X1-Gly-Suc-AEEA-AEEA-AEEA-AEEA}-K[dS][dY]QWAV[βAla]HL[Nle]-NH2), the half-life was 2.6 h in series [1] and 2.4 h in series [2].
In the case of `CCc1c2c(nc3ccc(O)cc13)-c1cc3c(c(=O)n1C2)COC(=O)[C@@]3(CC)OC(=O)CNC(=O)CCC(=O)NCCOCCOCC(=O)NCCOCCOCC(=O)NCCOCCOCC(=O)NCCOCCOCC(=O)NCCN1CCN(CC(=O)N[C@H](Cc2ccccc2)C(=O)N[C@H]2CSSC[C@@H](C(=O)N[C@H](C(N)=O)[C@@H](C)O)NC(=O)[C@H](CC)NC(=O)[C@H](CCCCN)NC(=O)[C@@H](Cc3c[nH]c4ccccc34)NC(=O)[C@H](Cc3ccc(O)cc3)NC2=O)CC1` [Example 19, SN38-rvGly-Suc-(Doc)4-Aepa-D-Phe-c(Cys-Tyr-D-Trp-Lys-Abu-Cys)-Thr-NH2], the half-life is 2.6 h in series [1] and 6.9 h in series [2]. Besides, at hSSTR-1, the negative logarithm of the Ki (pKi) is at most 6.00.
